Assay results published in the supplement of paper PMC7877785.
± gives the uncertainty stated by the source.

Assay: self-splicing fitness, log relative to wild type (ln ratio); higher = more splicing; Tetrahymena group I intron in knt gene, E. coli kanamycin selection, DiMSum; sequences stand for … in CUCUCU…GGAGGGAAAAGUUAUCAGGCAUGCACCUGGUAGCUAGUCUUUAAACCAAUAGAUUGCAUCGGUUUAAAAGGCAAGACCGUCAAAUUGCGGGAAAGGGGUCAACAGCCGUUCAGUACCAAGUCUCAGGGGAAACUUUGAGAUGGCCUUGCAAAGGGUAUGGUAAUAAGCUGACGGACAUGGUCCUAACCACGCAGCCAAGUCCUAAGUCAACAGAUCUUCUGUUGAUAUGGAUGCAGUUCACAGACUAAAUGUCGGUCGGGGAAGAUGUAUUCUUCUCAUAAGAUAUAGUCGGACCUCUCCUUAAUGGGAGCUAGCGGAUGAAGUGAUGCAACACUGGAGCCGCUGGGAACUAAUUUGUAUGCGAAAGUAUAUUGAUUAGUUUUGGAGUACUCGUGGUCG
Summary of the method: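 Pooled colonies went to amplicon sequencing on an Illumina HiSeq 2500 after six replicate transformations. The plates were LB agar with 100 μg/mL carbenicillin, 50 μM IPTG and 0.2% rhamnose, with or without 25 μg/mL kanamycin, incubated overnight at 37°C or 30°C. The E. coli BL21(DE3) library had all eight P1ex-region intron nucleotides randomised, the intron placed in the knt kanamycin-resistance gene on pET-22b(+). DiMSum fitness is the error-weighted combination of replicate fold changes, kanamycin against none, normalised to wild type.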

Sequence	self-splicing fitness (ln) (30 °C)	self-splicing fitness (ln) (37 °C)
GUGCAGCAAUAUUACGCGCG	-2.41 ± 0.13	-1.98 ± 0.16
UCGCAGCAAUAUUACGAAUG	-3.42 ± 0.23	-4.35 ± 0.42
AGCUAGCAAUAUUACGGAUU	-1.3 ± 0.097	-1 ± 0.13
AUGCAGCAAUAUUACGGAUG	-4.6 ± 0.29	-1.08 ± 0.13
CCAUAGCAAUAUUACGUUGA	-3.57 ± 0.26	-2.31 ± 0.15
AGCAAGCAAUAUUACGCUAA	-2.93 ± 0.2	-1.69 ± 0.16
CGUAAGCAAUAUUACGGUAU	-3.71 ± 0.37	-2.56 ± 0.26
AUGCAGCAAUAUUACGUCCA	-1.72 ± 0.11	-0.786 ± 0.11
UUAUAGCAAUAUUACGCUGA	-2.17 ± 0.14	-0.624 ± 0.13
AAACAGCAAUAUUACGACAG	-1.5 ± 0.082	-1.25 ± 0.1
UUUGAGCAAUAUUACGAUCA	-2.12 ± 0.24	-1.28 ± 0.25
GAGCAGCAAUAUUACGUGUU	-3.3 ± 0.33	-2.81 ± 0.22
CAAAAGCAAUAUUACGCGGU	-3.58 ± 0.2	-2.46 ± 0.24
UCGGAGCAAUAUUACGCGAU	-3.51 ± 0.19	-2.42 ± 0.23
AUCAAGCAAUAUUACGGCAC	-1.67 ± 0.1	-0.0454 ± 0.16
UGGCAGCAAUAUUACGAAAG	-2.17 ± 0.14	-1.19 ± 0.13
GGAUAGCAAUAUUACGUUUA	-1.02 ± 0.16	0.714 ± 0.14
CGAUAGCAAUAUUACGCCUG	-0.681 ± 0.15	0.308 ± 0.11
CUGGAGCAAUAUUACGCUAG		-2.79 ± 0.36
UGUGAGCAAUAUUACGUUAC	-3.75 ± 0.37	-2.6 ± 0.38
GGCGAGCAAUAUUACGUUAA	-2.51 ± 0.19	-1.4 ± 0.2
CGACAGCAAUAUUACGCCAA	-2.18 ± 0.28	-3.28 ± 0.37
AUGUAGCAAUAUUACGAUUA	-0.6 ± 0.14	0.00536 ± 0.13
CCAUAGCAAUAUUACGGAAU	-1.22 ± 0.15	-2.38 ± 0.2

Sequence	self-splicing fitness (ln) (30 °C)	self-splicing fitness (ln) (37 °C)
AGCUAGCAAUAUUACGCUAA	-1.97 ± 0.18	-1.21 ± 0.12
UACAAGCAAUAUUACGCAGG	-2.78 ± 0.11	-1.7 ± 0.095
AACAAGCAAUAUUACGGUGA	-0.546 ± 0.059	-0.765 ± 0.073
CGGAAGCAAUAUUACGGCGG	-0.184 ± 0.1	0.177 ± 0.13
CAAGAGCAAUAUUACGUCCG	-1.66 ± 0.087	-0.696 ± 0.13
UCCCAGCAAUAUUACGACUG	-3.58 ± 0.2	-3.16 ± 0.32
CGUAAGCAAUAUUACGGGGA	-3.42 ± 0.22	-1.73 ± 0.14
AAAUAGCAAUAUUACGAUUG	-2.16 ± 0.15	-1.31 ± 0.18
GUCAAGCAAUAUUACGUCCC	-1.22 ± 0.29	-0.2 ± 0.26
GCUAAGCAAUAUUACGGGCU		-2.23 ± 0.31
AGAUAGCAAUAUUACGCAAC	-2.05 ± 0.34	-1.39 ± 0.24
CAAAAGCAAUAUUACGCCCA	-1.69 ± 0.21	-0.538 ± 0.2
AUCUAGCAAUAUUACGGUUG	-2.66 ± 0.15	-2.45 ± 0.19
GGGCAGCAAUAUUACGAUGU	-3.92 ± 0.3	-0.5 ± 0.18
GGCCAGCAAUAUUACGCGGG	-3.29 ± 0.48	-3.29 ± 0.37
GGUUAGCAAUAUUACGGCCA	-0.0519 ± 0.23	0.0427 ± 0.2
GUUGAGCAAUAUUACGAGAG	-3.95 ± 0.4	-2.63 ± 0.41
GUUUAGCAAUAUUACGUUUA	-2.69 ± 0.23	-0.853 ± 0.17
GCCUAGCAAUAUUACGCUGG	-2.92 ± 0.17	-3.83 ± 0.42
CAGCAGCAAUAUUACGUGAG	-0.675 ± 0.06	-0.267 ± 0.086
GCCAAGCAAUAUUACGGGCG	-1.36 ± 0.09	-0.322 ± 0.11
CGGCAGCAAUAUUACGCUAA	-1.59 ± 0.1	-2.03 ± 0.15
UCCCAGCAAUAUUACGACUA	-2.12 ± 0.15	-1.15 ± 0.15
AUUCAGCAAUAUUACGAUGU	0.173 ± 0.082	0.209 ± 0.099
